This passage reports Neut50 value results from patent publication US9821050.

The assay has as its target DENV2 (S-16803) intact virus, E glycoprotein on the virion (dengue virus serotype 2 (S-16803)). The assay is described as follows: cell-based or functional assay.

The substance human monoclonal antibody 2D22 returned a Neut50 value below 0.2 µg/mL.
